Reference: the supplement of paper PMC9112550, “Optimization of the antimicrobial peptide Bac7 by deep mutational scanning” (BMC Biology, 2022)

System: Escherichia coli TOP10
Test: shrunken log2 fold change of peptide-encoding DNA abundance (4.5 h post-induction vs induction); higher = less antimicrobial activity (less host growth inhibition)
Settings: time post-induction: 4.5 h; library: site-saturation at positions 5, 18, 19, 20
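Also: peptides expressed intracellularly from a pBAD plasmid library in pooled LB shake-flask culture, induced with 0.3% L-arabinose, DNA abundance read by NGS, three biological replicates, DESeq2 with apeglm shrinkage.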

Sequence | shrunken log2 fold change
RRIRARPPRLPRPRPRPNYLPRP | 0.00106
RRIRARPPRLPRPRPRPPAQPRP | 1.02
RRIRARPPRLPRPRPRPPCVPRP | 0.342
RRIRARPPRLPRPRPRPPDAPRP | 1.25
RRIRARPPRLPRPRPRPPDMPRP | 0.778
RRIRARPPRLPRPRPRPPDPPRP | 1
RRIRARPPRLPRPRPRPPESPRP | 1.02
RRIRARPPRLPRPRPRPPFQPRP | 0.415
RRIRARPPRLPRPRPRPPHWPRP | 1.08
RRIRARPPRLPRPRPRPPIPPRP | 0.319
RRIRARPPRLPRPRPRPPISPRP | 0.027
RRIRARPPRLPRPRPRPPKQPRP | 0.0504
RRIRARPPRLPRPRPRPPLIPRP | 0.299
RRIRARPPRLPRPRPRPPLVPRP | 0.626
RRIRARPPRLPRPRPRPPMAPRP | 0.484
RRIRARPPRLPRPRPRPPMTPRP | 0.88
RRIRARPPRLPRPRPRPPNVPRP | 0.109
RRIRARPPRLPRPRPRPPPRPRP | 1.56
RRIRARPPRLPRPRPRPPQNPRP | 1.05
RRIRARPPRLPRPRPRPPRHPRP | 0.937
RRIRARPPRLPRPRPRPPRPPRP | 1
RRIRARPPRLPRPRPRPPSPPRP | 0.669
RRIRARPPRLPRPRPRPPTDPRP | 0.839
RRIRARPPRLPRPRPRPPTSPRP | 0.525
RRIRARPPRLPRPRPRPPTTPRP | 0.775

Sequence | shrunken log2 fold change
RRIRARPPRLPRPRPRPPWTPRP | 0.385
RRIRARPPRLPRPRPRPPWWPRP | 1.03
RRIRARPPRLPRPRPRPPYNPRP | -0.399
RRIRARPPRLPRPRPRPQAHPRP | 0.324
RRIRARPPRLPRPRPRPQDLPRP | -0.0381
RRIRARPPRLPRPRPRPQDQPRP | 0.302
RRIRARPPRLPRPRPRPQFIPRP | -0.382
RRIRARPPRLPRPRPRPQHDPRP | -0.117
RRIRARPPRLPRPRPRPQHRPRP | -0.281
RRIRARPPRLPRPRPRPQHYPRP | -0.474
RRIRARPPRLPRPRPRPQIKPRP | 0.048
RRIRARPPRLPRPRPRPQKCPRP | 0.0806
RRIRARPPRLPRPRPRPQKNPRP | 0.0395
RRIRARPPRLPRPRPRPQLTPRP | 0.179
RRIRARPPRLPRPRPRPQLYPRP | 0.0997
RRIRARPPRLPRPRPRPQMSPRP | 0.0835
RRIRARPPRLPRPRPRPQNAPRP | 0.243
RRIRARPPRLPRPRPRPQNRPRP | 0.495
RRIRARPPRLPRPRPRPQNYPRP | -0.1
RRIRARPPRLPRPRPRPQSNPRP | -0.142
RRIRARPPRLPRPRPRPQTQPRP | 0.628
RRIRARPPRLPRPRPRPQVPPRP | 0.117
RRIRARPPRLPRPRPRPQWNPRP | -0.00397
RRIRARPPRLPRPRPRPQYHPRP | -0.398
RRIRARPPRLPRPRPRPRAAPRP | 0.826

Sequence | shrunken log2 fold change
RRIRARPPRLPRPRPRPRDSPRP | 0.499
RRIRARPPRLPRPRPRPRELPRP | 0.496
RRIRARPPRLPRPRPRPRFCPRP | 0.527
RRIRARPPRLPRPRPRPRFEPRP | 0.401
RRIRARPPRLPRPRPRPRFGPRP | 0.469
RRIRARPPRLPRPRPRPRFSPRP | 0.308
RRIRARPPRLPRPRPRPRGRPRP | 0.703
RRIRARPPRLPRPRPRPRGVPRP | 0.682
RRIRARPPRLPRPRPRPRHDPRP | 0.128
RRIRARPPRLPRPRPRPRLSPRP | 0.358
RRIRARPPRLPRPRPRPRMNPRP | 0.183
RRIRARPPRLPRPRPRPRNGPRP | 0.566
RRIRARPPRLPRPRPRPRPCPRP | 0.426
RRIRARPPRLPRPRPRPRPRPRP | 1.99
RRIRARPPRLPRPRPRPRQCPRP | 0.353
RRIRARPPRLPRPRPRPRSFPRP | 0.202
RRIRARPPRLPRPRPRPRSTPRP | 0.295
RRIRARPPRLPRPRPRPRTCPRP | 0.181
RRIRARPPRLPRPRPRPRWLPRP | 0.68
RRIRARPPRLPRPRPRPSAFPRP | 0.54
RRIRARPPRLPRPRPRPSAKPRP | 0.471
RRIRARPPRLPRPRPRPSDDPRP | 0.282
RRIRARPPRLPRPRPRPSDGPRP | 0.0321
RRIRARPPRLPRPRPRPSDVPRP | 0.162
RRIRARPPRLPRPRPRPSELPRP | 0.22

Sequence | shrunken log2 fold change
RRIRARPPRLPRPRPRPSEWPRP | 0.0632
RRIRARPPRLPRPRPRPSFCPRP | 0.167
RRIRARPPRLPRPRPRPSFLPRP | -0.338
RRIRARPPRLPRPRPRPSGQPRP | 0.251
RRIRARPPRLPRPRPRPSGWPRP | 0.861
RRIRARPPRLPRPRPRPSHMPRP | -0.184
RRIRARPPRLPRPRPRPSHVPRP | -0.306
RRIRARPPRLPRPRPRPSKEPRP | 0.103
RRIRARPPRLPRPRPRPSKIPRP | -0.265
RRIRARPPRLPRPRPRPSLFPRP | 0.349
RRIRARPPRLPRPRPRPSMYPRP | 0.0294
RRIRARPPRLPRPRPRPSNNPRP | -0.376
RRIRARPPRLPRPRPRPSNWPRP | 0.253
RRIRARPPRLPRPRPRPSPPPRP | 0.67
RRIRARPPRLPRPRPRPSRWPRP | 0.388
RRIRARPPRLPRPRPRPSSHPRP | -0.471
RRIRARPPRLPRPRPRPSTEPRP | 0.396
RRIRARPPRLPRPRPRPSVMPRP | 0.00738
RRIRARPPRLPRPRPRPTDTPRP | 0.535
RRIRARPPRLPRPRPRPTEVPRP | 0.173
RRIRARPPRLPRPRPRPTGGPRP | 0.836
RRIRARPPRLPRPRPRPTGHPRP | -0.132
RRIRARPPRLPRPRPRPTGNPRP | 0.186
RRIRARPPRLPRPRPRPTHWPRP | 0.863
RRIRARPPRLPRPRPRPTIVPRP | -0.152

Sequence | shrunken log2 fold change
RRIRARPPRLPRPRPRPTLEPRP | 0.388
RRIRARPPRLPRPRPRPTLFPRP | 0.663
RRIRARPPRLPRPRPRPTLYPRP | -0.034
RRIRARPPRLPRPRPRPTMEPRP | 0.564
RRIRARPPRLPRPRPRPTMYPRP | -0.154
RRIRARPPRLPRPRPRPTNAPRP | 0.434
RRIRARPPRLPRPRPRPTNSPRP | 0.165
RRIRARPPRLPRPRPRPTQEPRP | 0.0329
RRIRARPPRLPRPRPRPTSKPRP | 0.236
RRIRARPPRLPRPRPRPTTMPRP | 0.156
RRIRARPPRLPRPRPRPTYNPRP | -0.121
RRIRARPPRLPRPRPRPTYRPRP | 0.0376
RRIRARPPRLPRPRPRPVANPRP | 0.238
RRIRARPPRLPRPRPRPVCTPRP | 0.434
RRIRARPPRLPRPRPRPVCVPRP | 0.579
RRIRARPPRLPRPRPRPVEKPRP | 0.347
RRIRARPPRLPRPRPRPVFEPRP | 0.41
RRIRARPPRLPRPRPRPVFYPRP | -0.0366
RRIRARPPRLPRPRPRPVGHPRP | 0.189
RRIRARPPRLPRPRPRPVGPPRP | 0.124
RRIRARPPRLPRPRPRPVHNPRP | 0.11
RRIRARPPRLPRPRPRPVHRPRP | -0.0852
RRIRARPPRLPRPRPRPVKKPRP | 0.147
RRIRARPPRLPRPRPRPVKMPRP | 0.163
RRIRARPPRLPRPRPRPVLNPRP | -0.0316

Sequence | shrunken log2 fold change
RRIRARPPRLPRPRPRPVMCPRP | 0.0832
RRIRARPPRLPRPRPRPVNNPRP | -0.223
RRIRARPPRLPRPRPRPVPFPRP | 0.0816
RRIRARPPRLPRPRPRPVQFPRP | -0.0854
RRIRARPPRLPRPRPRPVQVPRP | 0.123
RRIRARPPRLPRPRPRPVSIPRP | 0.119
RRIRARPPRLPRPRPRPVSKPRP | 0.141
RRIRARPPRLPRPRPRPVSNPRP | 0.296
RRIRARPPRLPRPRPRPVWLPRP | 0.399
RRIRARPPRLPRPRPRPVWRPRP | 0.873
RRIRARPPRLPRPRPRPWAPPRP | 0.0486
RRIRARPPRLPRPRPRPWARPRP | 0.0181
RRIRARPPRLPRPRPRPWAWPRP | 0.239
RRIRARPPRLPRPRPRPWCKPRP | 0.102
RRIRARPPRLPRPRPRPWDAPRP | 0.108
RRIRARPPRLPRPRPRPWDEPRP | 0.379
RRIRARPPRLPRPRPRPWDHPRP | -0.00959
RRIRARPPRLPRPRPRPWDRPRP | 0.0339
RRIRARPPRLPRPRPRPWEIPRP | -0.0378
RRIRARPPRLPRPRPRPWFAPRP | 0.212
RRIRARPPRLPRPRPRPWFEPRP | -0.0275
RRIRARPPRLPRPRPRPWFRPRP | 0.133
RRIRARPPRLPRPRPRPWGNPRP | 0.00277
RRIRARPPRLPRPRPRPWNPPRP | 0.126
RRIRARPPRLPRPRPRPWNWPRP | 0.376
